Source: US20260216362A1, “ANTI-BDCA2 ANTIBODY-DRUG CONJUGATE AND USE THEREOF” (DUALITY BIOLOGICS (SHANGHAI) CO., LTD., priority 2022, published 2026)

Experiments:
[1] = target: T1, recombinant Human BDCA2 (Homo sapiens, UniProt Q8WTT0); test: Affinity assay of humanized antibodies by BIAcore (SPR); conditions: 1:1 binding model
T1 construct: extracellular domain (Asn45-Ile213) of human BDCA2 (hBDCA2); human IgG1 Fc (fused via a linker) (N); made in house; host or cells: 293E
T1 sequence (Q8WTT0 45-213): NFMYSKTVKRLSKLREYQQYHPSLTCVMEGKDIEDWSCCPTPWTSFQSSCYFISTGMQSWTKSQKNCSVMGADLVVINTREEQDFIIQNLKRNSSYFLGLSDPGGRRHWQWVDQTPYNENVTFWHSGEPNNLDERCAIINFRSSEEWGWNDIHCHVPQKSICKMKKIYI
Experimental: The humanized antibodies of the present disclosure were assayed for affinity by the BIAcore experiment. The surface of a CM5 chip channel was activated with 50 mM NHS and 200 mM EDC (NHS and EDC from an amino coupling kit) mixed in a ratio of 1:1, and the anti-human IgG (Fc) antibody (diluted with a sodium acetate solution at pH 5.0, the concentration was 25 μg/mL) was injected for 420 s. Then 1 M ethanolamine was injected at a flow rate of 10 μL/min for 420 s to block excess active carboxyl groups on the chip. The humanized antibody was diluted to 1 μg/mL using a running buffer and injected into a detection channel flow cell at a flow rate of 10 μL/min. The sample injection was performed for 60 s for capture. The recombinant Human BDCA2 was diluted to 50 nM or 100 nM with 1× HBS-EP+ (pH 7.4), and diluted in a gradient of 1:2 to 0.39 nM. The test samples hBDCA2 at these concentration gradients were separately injected into the detection channel at a flow rate of 30 μL/min, wherein 2 samples at the concentration of 0 were used for removing background signals. The times for the antibody-antigen binding and dissociation were 180 s and 400 s, respectively. […] After subtraction of the signals from the reference channel (flow cell 1) and 0 concentration, a 1:1 binding model was selected for curve fitting, and kinetic parameters calculated.

[2] = test system: human PBMC cells; test: Inhibition by humanized antibodies of IFNα release from human PBMC cells stimulated by CpG-A; format: cell-based; conditions: Table 4, humanized antibodies; read-out: EC50, inhibition of release of cytokine IFNα from human PBMC cells stimulated by CpG-A
Experimental: A series of humanized candidate antibody molecules were selected and subjected to the function detection of inhibiting the release of the cytokine IFNα from the human PBMC cells stimulated by CpG-A. The cryopreserved human PBMC cells were thawed and incubated in a complete culture medium (1640+10% FBS+1×NEAA+1×L-Glutamine) overnight for 18 h. The next day, the PBMC cells were collected and centrifuged at 600 g for 8 min, and the supernatant was discarded. The cells were resuspended to 8×10^6 cells/mL in a culture medium (1640+10% FBS), and the mixture was added to a 3799 cell culture plate at 100 μL/well. The test antibody was diluted in a 10-fold gradient (0.0001 nM-10 nM, and 0 concentration point was used as a control) with the culture medium (1640+10% FBS), and the diluted antibody was added to the PBMCs at 50 μL/well. The cells were resuspended and then incubated at 37° C. for 6 h. 50 μL of CpG-A (2 μM, Invitrogen, tlrl-2216-5) diluted in the culture medium (1640+10% FBS) was added to each well and mixed, followed by incubation at 37° C. for another 20 h. […]
The antibody MT1/3/5 (Mabtech, 3425-1H-20) was diluted to 4 μg/mL with PBS, and added to a CORNING ELISA plate at 100 μL/well. […] The values at OD450 nm were read on an ELISA plate reader, and curves were fitted using GraphPad Prism6. […]

[3] = test system: pDCs in the peripheral blood of cynomolgus monkeys; test: pDC percentage and BDCA2 expression level on pDCs in peripheral blood of dosed cynomolgus monkeys by FACS; conditions: 10 mg/kg intravenous
Experimental: Nine female cynomolgus monkeys were divided into 3 groups, 3 cynomolgus monkeys per group.
The pDC percentage in the peripheral blood and the BDCA2 expression level on the surface of pDCs were detected by FACS.
Venous blood of the cynomolgus monkeys was collected by using a heparin anticoagulation tube, 6 mL of red blood cell lysis buffer was added to 300 μL of the blood, and the resulting mixture was placed at room temperature for 10 min. The cells were collected by centrifugation at 400 g for 5 min at room temperature. The cells were washed with PBS and resuspended in 100 μL of cell staining buffer (PBS+1% FBS). 5 μL of Fc Block was added to the cell suspension and left to stand at 4° C. for 10 min. […] The cells were washed twice with PBS, resuspended in 200 μL of the cell staining buffer, and analyzed by using a flow cytometer.

Substance: BIIB059: reference antibody specifically binding to BDCA2, sequence derived from U.S. Pat. No. 9,902,775B2; SEQ ID NO: 25 and 26 [reference compound]
- ka [1]: 167000 M⁻¹ s⁻¹
- kd [1]: 0.000179 s⁻¹
- EC50 [2]: 0.04 nM
- BDCA2 level on the surface of pDCs in the blood compared to the blank control [3]: reduced
- pDC percentage in the blood compared to the blank control [3]: no significant change
